According to article PMC8299537 (Nature, 2021):

T1: PYD and CARD-deleted NLRP1 (NLRP1ΔΔ), molecule A of the ternary complex (human, UniProt Q9C000-1 148-1364)
T1 sequence (looked up): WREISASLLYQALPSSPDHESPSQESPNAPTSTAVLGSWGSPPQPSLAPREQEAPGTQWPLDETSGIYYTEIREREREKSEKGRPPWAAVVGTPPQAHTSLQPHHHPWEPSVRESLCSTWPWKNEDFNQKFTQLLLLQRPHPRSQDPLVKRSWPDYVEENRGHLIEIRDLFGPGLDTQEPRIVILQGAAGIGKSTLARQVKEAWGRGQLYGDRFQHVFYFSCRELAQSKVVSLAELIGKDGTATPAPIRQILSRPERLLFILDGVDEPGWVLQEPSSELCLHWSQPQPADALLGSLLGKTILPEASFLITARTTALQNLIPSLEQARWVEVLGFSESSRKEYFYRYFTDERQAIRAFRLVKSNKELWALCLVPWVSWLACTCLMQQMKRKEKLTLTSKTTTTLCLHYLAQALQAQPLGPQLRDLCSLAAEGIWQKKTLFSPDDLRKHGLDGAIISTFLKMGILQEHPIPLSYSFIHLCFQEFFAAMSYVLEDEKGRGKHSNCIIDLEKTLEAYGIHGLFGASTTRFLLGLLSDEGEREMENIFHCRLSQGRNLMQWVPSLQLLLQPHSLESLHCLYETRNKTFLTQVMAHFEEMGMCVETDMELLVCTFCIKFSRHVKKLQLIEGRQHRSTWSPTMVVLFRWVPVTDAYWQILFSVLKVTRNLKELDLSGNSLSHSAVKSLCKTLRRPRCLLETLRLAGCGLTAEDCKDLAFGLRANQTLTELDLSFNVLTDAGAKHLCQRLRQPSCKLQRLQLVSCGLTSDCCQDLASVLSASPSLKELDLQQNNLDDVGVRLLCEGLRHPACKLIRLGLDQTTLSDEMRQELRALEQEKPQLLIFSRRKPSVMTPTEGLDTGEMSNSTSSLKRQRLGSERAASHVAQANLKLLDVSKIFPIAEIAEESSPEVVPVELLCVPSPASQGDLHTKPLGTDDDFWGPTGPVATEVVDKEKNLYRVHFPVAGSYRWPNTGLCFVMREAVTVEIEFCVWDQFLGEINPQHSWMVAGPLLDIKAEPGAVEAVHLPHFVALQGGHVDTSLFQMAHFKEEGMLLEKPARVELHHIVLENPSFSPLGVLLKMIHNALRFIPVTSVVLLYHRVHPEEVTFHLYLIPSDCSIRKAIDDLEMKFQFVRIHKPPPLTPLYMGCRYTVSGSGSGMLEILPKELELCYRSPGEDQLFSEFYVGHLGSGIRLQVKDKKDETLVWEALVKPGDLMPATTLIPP

B1: NLRP1-CT derived from NLRP1ΔΔ (UPA subdomain only), molecule B of the ternary complex (domain or fragment, human, UniProt Q9C000-1 1213-1364, looked up)
chain: SPLGVLLKMIHNALRFIPVTSVVLLYHRVHPEEVTFHLYLIPSDCSIRKAIDDLEMKFQFVRIHKPPPLTPLYMGCRYTVSGSGSGMLEILPKELELCYRSPGEDQLFSEFYVGHLGSGIRLQVKDKKDETLVWEALVKPGDLMPATTLIPP
B2: DPP9, short isoform (His-TEV-DPP9), co-purified with NLRP1ΔΔ (enzyme, human)
chain: MATTGTPTADRGDAAATDDPAARFQVQKHSWDGLRSIIHGSRKYSGLIVNKAPHDFQFVQKTDESGPHSHRLYYLGMPYGSRENSLLYSEIPKKVRKEALLLLSWKQMLDHFQATPHHGVYSREEELLRERKRLGVFGITSYDFHSESGLFLFQASNSLFHCRDGGKNGFMVSPMKPLEIKTQCSGPRMDPKICPADPAFFSFINNSDLWVANIETGEERRLTFCHQGLSNVLDDPKSAGVATFVIQEEFDRFTGYWWCPTASWEGSEGLKTLRILYEEVDESEVEVIHVPSPALEERKTDSYRYPRTGSKNPKIALKLAEFQTDSQGKIVSTQEKELVQPFSSLFPKVEYIARAGWTRDGKYAWAMFLDRPQQWLQLVLLPPALFIPSTENEEQRLASARAVPRNVQPYVVYEEVTNVWINVHDIFYPFPQSEGEDELCFLRANECKTGFCHLYKVTAVLKSQGYDWSEPFSPGEDEFKCPIKEEIALTSGEWEVLARHGSKIWVNEETKLVYFQGTKDTPLEHHLYVVSYEAAGEIVRLTTPGFSHSCSMSQNFDMFVSHYSSVSTPPCVHVYKLSGPDDDPLHKQPRFWASMMEAASCPPDYVPPEIFHFHTRSDVRLYGMIYKPHALQPGKKHPTVLFVYGGPQVQLVNNSFKGIKYLRLNTLASLGYAVVVIDGRGSCQRGLRFEGALKNQMGQVEIEDQVEGLQFVAEKYGFIDLSRVAIHGWSYGGFLSLMGLIHKPQVFKVAIAGAPVTVWMAYDTGYTERYMDVPENNQHGYEAGSVALHVEKLPNEPNRLLILHGFLDENVHFFHTNFLVSQLIRAGKPYQLQIYPNERHSIRCPESGEHYEVTLLHFLQEYL

Biological target: T1, PYD and CARD-deleted NLRP1 (NLRP1ΔΔ), …
Assay: cryo-EM structure

| Binder | binding result |
| --- | --- |
| B1 | binds |
| B2 | binds |
